Data reported in the Human Domainome abundance scans (Beltran et al. 2025).
± gives the uncertainty stated by the source.

B1: RAS guanyl-releasing protein 1, residues 539 to 593; numbered along this chain, O95267 (parent)
chain: GFPHNFQETTYLKPTFCDNCAGFLWGVIKQGYRCKDCGMNCHKQCKDLVVFECKK

Variants of: B1
Assay: abundance fitness (aPCA) (normalised: wild type 0, dead -1); higher = more abundant; growth selection in yeast, the domain comes from the species named
Settings: Homo sapiens

Variant | abundance fitness
GFPHNFQETTYLKPTFCDNCAGFLWGVIKQGYRCKDCGMNCHKWCKDLVVFECKK [Q44W] | 0.003 ± 0.087
GFPHNFQETTYLHPTFCDNCAGFLWGVIKQGYRCKDCGMNCHKQCKDLVVFECKK [K13H] | 0.015 ± 0.087
GFPHNFQETTYLVPTFCDNCAGFLWGVIKQGYRCKDCGMNCHKQCKDLVVFECKK [K13V] | -0.106 ± 0.086
GFPHNFQETTYLKPTFCDNCANFLWGVIKQGYRCKDCGMNCHKQCKDLVVFECKK [G22N] | -0.298 ± 0.23
GFPHNFQETTYLKPTFCDNCAGFLWGVIKQGYRCKDCGMNCHKQCVDLVVFECKK [K46V] | -0.251 ± 0.11
GFPHNFQETTYLKPTFCDNCAGFLWGVIKQGYRCKDCGMNCHKQCHDLVVFECKK [K46H] | 0.096 ± 0.14
GFPHNFQETTYLKPTFEDNCAGFLWGVIKQGYRCKDCGMNCHKQCKDLVVFECKK [C17E] | -0.826 ± 0.4
GFPHNFQETTYLKPTFQDNCAGFLWGVIKQGYRCKDCGMNCHKQCKDLVVFECKK [C17Q] | -0.755 ± 0.1
GFPHNFQETTYLKPTFCDNHAGFLWGVIKQGYRCKDCGMNCHKQCKDLVVFECKK [C20H] | -0.695 ± 0.34
GFPHNFQETTYLKPTFCDNGAGFLWGVIKQGYRCKDCGMNCHKQCKDLVVFECKK [C20G] | -1.12 ± 0.081
GFPHNFQETTYLKPTFCDNQAGFLWGVIKQGYRCKDCGMNCHKQCKDLVVFECKK [C20Q] | -1.01 ± 0.21
GFPHNFQETTYLKPTFCDNNAGFLWGVIKQGYRCKDCGMNCHKQCKDLVVFECKK [C20N] | -1.29 ± 0.39
GFPHNFQETTYLKPTFCDNCAGFLWGVIKQGHRCKDCGMNCHKQCKDLVVFECKK [Y32H] | -0.132 ± 0.1
GFPHNFQETTYLKPTFCDNCAGFLWGVIKQGIRCKDCGMNCHKQCKDLVVFECKK [Y32I] | -0.184 ± 0.13
GFPHNFQETTYLKPTFCDNCAGFLWGVIKQGMRCKDCGMNCHKQCKDLVVFECKK [Y32M] | -0.101 ± 0.13
GFPHNFQETTYLKPTFCDNCAGFLWGVIKQGERCKDCGMNCHKQCKDLVVFECKK [Y32E] | -0.166 ± 0.1
GFPHNFQETTYLKPTFCDNCAGFLWGVIKQGYRCKDCGMNCHKQCKDLVVFICKK [E52I] | -0.063 ± 0.11
GFPHNFQETTYLKPTFCDNCAGFLWGVIKQGYRCKDCGMNCHKQCKDLVVFWCKK [E52W] | -0.267 ± 0.11
GFPHNFQETTYLKPTFCDNCAGFLWGVIKQGYRCKDCGMNCHKQCKDLVVTECKK [F51T] | -0.435 ± 0.14
GFPHNFQETTYLKPTFCDNCAGFLWGVIKQGYRCKDCGMNCHKQCKDLVVFECKS [K55S] | 0.077 ± 0.13
GFPHNFQETTYLKPTFCDNCAGFLWGVIKQGYRCKDCGMNCHKQCKDLVVFECKE [K55E] | -0.242 ± 0.31
GFPHNFQETTYLKPTFCDNCAGFLWGVIKQGYRCADCGMNCHKQCKDLVVFECKK [K35A] | 0.041 ± 0.074
GFPHNFQETTYLKPTFCDNCAGFLWGVIKQGYRCFDCGMNCHKQCKDLVVFECKK [K35F] | -0.193 ± 0.098
GFPHNFQETTYLKPTFCDNCAGFLWGVIKQGYRCSDCGMNCHKQCKDLVVFECKK [K35S] | -0.026 ± 0.07

Variant | abundance fitness
GFPHNFQETTYLKPTFCDNCAGFLWGVIKQGYRCCDCGMNCHKQCKDLVVFECKK [K35C] | -0.13 ± 0.096
GFPHNFQETTYLKPTFCDNCAGFSWGVIKQGYRCKDCGMNCHKQCKDLVVFECKK [L24S] | -0.325 ± 0.071
GFPHNFQETTYLKPTFCDKCAGFLWGVIKQGYRCKDCGMNCHKQCKDLVVFECKK [N19K] | -0.052 ± 0.075
GFPHNFQETTYLKPTFCDSCAGFLWGVIKQGYRCKDCGMNCHKQCKDLVVFECKK [N19S] | 0.05 ± 0.062
GFPHNFQETTYLKPTFCDNCAGFLWGVIKQSYRCKDCGMNCHKQCKDLVVFECKK [G31S] | -0.482 ± 0.059
GFPHNFQETTYLKPTFCDNCAGFLWGVIKQMYRCKDCGMNCHKQCKDLVVFECKK [G31M] | -0.461 ± 0.32
GFPHNFQETTYLKPTFCDNCAGFLWGVIKQGYRCKDCGMNCHKQCKDEVVFECKK [L48E] | -0.061 ± 0.07
GFPHNFQETTYLKPTFCDNCAGFLWGVIKQGYRCKDCGMNCHKQCKDNVVFECKK [L48N] | -0.295 ± 0.15
GFPHAFQETTYLKPTFCDNCAGFLWGVIKQGYRCKDCGMNCHKQCKDLVVFECKK [N5A] | -0.141 ± 0.077
GFPHQFQETTYLKPTFCDNCAGFLWGVIKQGYRCKDCGMNCHKQCKDLVVFECKK [N5Q] | -0.051 ± 0.093
GFPHNFQETTYLKPTFCDNCAGFLWGVIKQGYRCKDCGMNCHKQAKDLVVFECKK [C45A] | -0.527 ± 0.086
GFPHNFQETTYLKPTFCDNCAGFLWGVIKQGYRCKDGGMNCHKQCKDLVVFECKK [C37G] | -1.14 ± 0.14
GFPHNFQETTYLKPTFCDNCAGFLWGVIKQGYRCKDYGMNCHKQCKDLVVFECKK [C37Y] | -0.708 ± 0.29
GFPHNFQETTYLKPTFCDNCAGFLWGVIKQGYRCKDKGMNCHKQCKDLVVFECKK [C37K] | -0.933 ± 0.32
GFPHNQQETTYLKPTFCDNCAGFLWGVIKQGYRCKDCGMNCHKQCKDLVVFECKK [F6Q] | -0.309 ± 0.12
GFPHNPQETTYLKPTFCDNCAGFLWGVIKQGYRCKDCGMNCHKQCKDLVVFECKK [F6P] | -0.477 ± 0.097
GFPHNFQETTYLKPTFCDNCAGFLWGVIKQGYRGKDCGMNCHKQCKDLVVFECKK [C34G] | -0.951 ± 0.083
GFPHNFQQTTYLKPTFCDNCAGFLWGVIKQGYRCKDCGMNCHKQCKDLVVFECKK [E8Q] | 0.086 ± 0.11
GFPHNFQNTTYLKPTFCDNCAGFLWGVIKQGYRCKDCGMNCHKQCKDLVVFECKK [E8N] | -0.152 ± 0.22
GFPHNFQETTYLKPTFCDNCAGFLWGVIKQGYRCKDCGMHCHKQCKDLVVFECKK [N40H] | -0.127 ± 0.047
GFPHNFQETTYLKPTFCDNCAGFLWGVIKQGYRCKDCGMMCHKQCKDLVVFECKK [N40M] | -0.087 ± 0.061
GFPHNFQETTYLKPTFCDNCAGFLWGVIKQGYRCKDCEMNCHKQCKDLVVFECKK [G38E] | 0.077 ± 0.077
GFPHNFQETTYLKPTFCDNCAGFLWGVIKQGYRCKDCCMNCHKQCKDLVVFECKK [G38C] | -0.095 ± 0.066
GFPHNFQETTYMKPTFCDNCAGFLWGVIKQGYRCKDCGMNCHKQCKDLVVFECKK [L12M] | 0.319 ± 0.12
